B2: Gid8 with a C-terminal twin-Strep tag (natural protein)
chain: MTISTLSNETTKSGSCSGQGKNGGKDFTYGKKCFTKEEWKEQVAKYSAMGELYANKTIHYPLKIQPNSSGGSQDEGFATIQTTPIEPTLPRLLLNYFVSMAYEDSSIRMAKELGFIRNNKDIAVFNDLYKIKERFHIKHLIKLGRINEAMEEINSIFGLEVLEETFNATGSYTGRTDRQQQQQQQQFDIDGDLHFKLLLLNLIEMIRSHHQQENITKDSNDFILNLIQYSQNKLAIKASSSVKKMQELELAMTLLLFPLSDSADSGSIKLPKSLQNLYSISLRSKIADLVNEKLLKFIHPRIQFEISNNNSKFPDLLNSDKKIITQNFTVYNNNLVNGSNGTKITHISSDQPINEKMSSNEVTAAANSVWLNQRDGNVGTGSAATTFHNLENKNYWNQTSELLSSSNGKEKGLEFNNYYSSEFPYEPRLTQIMKLWCWCENQLHHNQIGVPRVEN

Assays:
GST-WDR26 (human) = GST-WDR26 (human) (UniProt Q9H7D7); assay: cryo-EM structure
[1] = biological target: B2; assay: cryo-EM structure
Gid9 = biological target: T1, Gid9 (S. cerevisiae, UniProt P40492 1-516); assay: cryo-EM structure
T1 sequence: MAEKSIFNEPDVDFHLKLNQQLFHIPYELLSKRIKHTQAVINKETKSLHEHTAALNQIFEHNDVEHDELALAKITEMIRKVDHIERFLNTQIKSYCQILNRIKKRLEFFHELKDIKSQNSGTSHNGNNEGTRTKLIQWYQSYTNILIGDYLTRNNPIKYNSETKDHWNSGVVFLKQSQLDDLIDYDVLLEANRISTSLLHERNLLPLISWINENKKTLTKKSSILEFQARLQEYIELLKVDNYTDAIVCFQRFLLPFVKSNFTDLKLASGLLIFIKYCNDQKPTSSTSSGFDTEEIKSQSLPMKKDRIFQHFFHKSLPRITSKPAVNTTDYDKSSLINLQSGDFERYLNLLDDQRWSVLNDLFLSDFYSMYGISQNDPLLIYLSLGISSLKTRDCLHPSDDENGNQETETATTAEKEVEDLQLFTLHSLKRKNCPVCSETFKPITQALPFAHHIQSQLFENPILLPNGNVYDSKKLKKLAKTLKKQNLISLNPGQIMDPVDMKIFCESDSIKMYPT

Gid1 = biological target: T2, Gid1 (S. cerevisiae, UniProt P53076); assay: cryo-EM structure
T2 sequence: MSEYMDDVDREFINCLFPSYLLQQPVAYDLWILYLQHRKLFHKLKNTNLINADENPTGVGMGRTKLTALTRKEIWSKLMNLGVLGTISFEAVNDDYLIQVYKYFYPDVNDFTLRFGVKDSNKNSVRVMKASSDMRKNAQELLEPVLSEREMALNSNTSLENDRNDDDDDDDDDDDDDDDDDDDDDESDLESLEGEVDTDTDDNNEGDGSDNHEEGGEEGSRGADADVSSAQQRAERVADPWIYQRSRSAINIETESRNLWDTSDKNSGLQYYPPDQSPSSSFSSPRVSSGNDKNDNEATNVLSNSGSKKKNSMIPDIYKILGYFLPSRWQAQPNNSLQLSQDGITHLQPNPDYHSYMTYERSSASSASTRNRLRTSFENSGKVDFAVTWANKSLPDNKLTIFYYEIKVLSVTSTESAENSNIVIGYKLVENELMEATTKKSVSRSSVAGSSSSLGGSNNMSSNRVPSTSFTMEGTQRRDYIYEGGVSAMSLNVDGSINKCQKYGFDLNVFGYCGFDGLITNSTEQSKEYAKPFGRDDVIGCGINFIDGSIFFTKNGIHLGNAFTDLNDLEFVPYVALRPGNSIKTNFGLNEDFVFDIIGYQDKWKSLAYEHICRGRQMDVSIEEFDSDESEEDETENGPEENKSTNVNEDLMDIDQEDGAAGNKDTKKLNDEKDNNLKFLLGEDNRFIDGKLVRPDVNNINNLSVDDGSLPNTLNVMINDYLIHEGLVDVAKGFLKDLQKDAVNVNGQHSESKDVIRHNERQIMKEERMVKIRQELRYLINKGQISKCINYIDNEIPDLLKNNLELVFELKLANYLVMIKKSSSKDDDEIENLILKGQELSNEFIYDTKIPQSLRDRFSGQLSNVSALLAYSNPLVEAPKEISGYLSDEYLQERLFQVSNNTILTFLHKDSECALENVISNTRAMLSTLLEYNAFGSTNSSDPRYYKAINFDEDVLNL

Gid5 = biological target: T3, Gid5 (S. cerevisiae, UniProt P40547); assay: cryo-EM structure
T3 sequence: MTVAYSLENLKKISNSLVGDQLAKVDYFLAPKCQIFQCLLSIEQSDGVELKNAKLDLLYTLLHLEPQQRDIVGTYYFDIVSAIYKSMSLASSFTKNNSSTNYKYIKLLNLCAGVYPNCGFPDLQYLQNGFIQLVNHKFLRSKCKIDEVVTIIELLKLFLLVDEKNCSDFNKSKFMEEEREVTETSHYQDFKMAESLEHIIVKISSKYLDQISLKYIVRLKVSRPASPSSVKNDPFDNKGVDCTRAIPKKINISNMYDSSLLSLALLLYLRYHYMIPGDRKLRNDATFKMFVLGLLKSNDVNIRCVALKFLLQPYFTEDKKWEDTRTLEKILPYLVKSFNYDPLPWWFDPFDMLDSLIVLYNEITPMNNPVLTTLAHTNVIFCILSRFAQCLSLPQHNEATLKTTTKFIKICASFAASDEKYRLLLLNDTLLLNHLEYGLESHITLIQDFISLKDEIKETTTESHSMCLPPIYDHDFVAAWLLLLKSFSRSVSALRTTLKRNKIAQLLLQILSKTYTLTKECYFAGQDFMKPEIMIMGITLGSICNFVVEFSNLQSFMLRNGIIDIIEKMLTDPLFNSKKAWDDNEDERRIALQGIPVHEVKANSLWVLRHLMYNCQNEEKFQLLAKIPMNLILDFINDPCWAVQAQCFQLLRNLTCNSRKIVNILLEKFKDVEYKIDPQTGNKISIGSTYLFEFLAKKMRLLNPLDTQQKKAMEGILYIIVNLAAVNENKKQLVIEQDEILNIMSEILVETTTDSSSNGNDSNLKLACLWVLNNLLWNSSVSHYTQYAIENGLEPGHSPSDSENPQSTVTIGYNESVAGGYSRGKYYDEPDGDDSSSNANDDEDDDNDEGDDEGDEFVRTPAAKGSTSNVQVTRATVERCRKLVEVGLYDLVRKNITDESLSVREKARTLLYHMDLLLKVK

crystal structure = biological target: the molecule itself; assay: crystal structure

For “GST-WDR26 (from UniProt Q9H7D7 1-661) (natural protein)”, the stoichiometry N (GST-WDR26 (human)) was 2.

B1: Gid2 (natural protein)
chain: MSELLDSFETEFAKFYTDSNLEETNLQKCLDHTHEFKSQLKKLKAHLNKHIQESKPEVYNKLSDKEKQKFKRKRELIIEKLSKSQRQWDHSVKKQIKYVSQQSNRFNKSTLNKLKEFDIDSVYVNKLPKETMENVNEAIGYHILRYSIDNMPLGNKNEAFQYLKDVYGITNKESTEFIEMGQIVHDLKKGDTESCLKWCSNEMESLSSNHTALSSLKFDLYTLSAMQIVKHGNPVELYYQITQNAPLDCFRHREKELMQNVVPLLTKSLIGQPIEDIDSKVNKELKECTSLFIKEYCAAKHIFFDSPLFLIVLSGLISFQFFIKYKTIRELAHVDWTTKDELPFDVKLPDFLTHFHPIFICPVLKEETTTENPPYSLACHHIISKKALDRLSKNGTITFKCPYCPVNTSMSSTKKVRFVML
B1: binds [1]; binds (Gid9).

B2: binds (Gid1); binds (Gid9).

B3: Gid4 (Δ1-116) (domain or fragment)
chain: TVCTNYLRPRMQFTGYQISGYKRYQVTVNLKTVDLPKKDCTSLSPHLSGFLSIRGLTNQHPEISTYFEAYAVNHKELGFLSSSWKDEPVLNEFKATDQTDLEHWINFPSFRQLFLMSQKNGLNSTDDNGTTNAAKKLPPQQLPTTPSADAGNISRIFSQEKQFDNYLNERFIFMKWKEKFLVPDALLMEGVDGASYDGFYYIVHDQVTGNIQGFYYHQDAEKFQQLELVPSLKNKVESSDCSFEFA
B3: binds (Gid5).

B4: fructose-1,6-bisphosphatase (Fbp1), C-terminally 6xHis-tagged (enzyme)
chain: PTLVNGPRRDSTEGFDTDIITLPRFIIEHQKQFKNATGDFTLVLNALQFAFKFVSHTIRRAELVNLVGLAGASNFTGDQQKKLDVLGDEIFINAMRASGIIKVLVSEEQEDLIVFPTNTGSYAVCCDPIDGSSNLDAGVSVGTIASIFRLLPDSSGTINDVLRCGKEMVAACYAMYGSSTHLVLTLGDGVDGFTLDTNLGEFILTHPNLRIPPQKAIYSINEGNTLYWNETIRTFIEKVKQPQADNNNKPFSARYVGSMVADVHRTFLYGGLFAYPCDKKSPNGKLRLLYEAFPMAFLMEQAGGKAVNDRGERILDLVPSHIHDKSSIWLGSSGEIDKFLDHIGKSQ
For B4, the “stoichiometry N” value (crystal structure) was 4.
